Assay in all cases: GST pull-down, anti-Smad7 immunoblot
A general note: In western blotting, separated proteins are transferred to a membrane and probed.

One test deals with T1, GST-β-catenin aa575–683 (Mus musculus (Mouse), UniProt Q02248).
T1 chain: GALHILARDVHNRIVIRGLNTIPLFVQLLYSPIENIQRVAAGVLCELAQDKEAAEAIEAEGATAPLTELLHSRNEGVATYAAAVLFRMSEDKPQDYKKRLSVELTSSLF

A further test concerns the target T2, GST-β-catenin aa1–106 (Mus musculus (Mouse), UniProt Q02248).
T2 chain: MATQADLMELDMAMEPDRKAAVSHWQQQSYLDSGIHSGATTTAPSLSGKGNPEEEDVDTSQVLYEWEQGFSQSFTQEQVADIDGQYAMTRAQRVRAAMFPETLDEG

In another test the target is T3, GST-β-catenin aa120–683 (Mus musculus (Mouse), UniProt Q02248).
T3 chain: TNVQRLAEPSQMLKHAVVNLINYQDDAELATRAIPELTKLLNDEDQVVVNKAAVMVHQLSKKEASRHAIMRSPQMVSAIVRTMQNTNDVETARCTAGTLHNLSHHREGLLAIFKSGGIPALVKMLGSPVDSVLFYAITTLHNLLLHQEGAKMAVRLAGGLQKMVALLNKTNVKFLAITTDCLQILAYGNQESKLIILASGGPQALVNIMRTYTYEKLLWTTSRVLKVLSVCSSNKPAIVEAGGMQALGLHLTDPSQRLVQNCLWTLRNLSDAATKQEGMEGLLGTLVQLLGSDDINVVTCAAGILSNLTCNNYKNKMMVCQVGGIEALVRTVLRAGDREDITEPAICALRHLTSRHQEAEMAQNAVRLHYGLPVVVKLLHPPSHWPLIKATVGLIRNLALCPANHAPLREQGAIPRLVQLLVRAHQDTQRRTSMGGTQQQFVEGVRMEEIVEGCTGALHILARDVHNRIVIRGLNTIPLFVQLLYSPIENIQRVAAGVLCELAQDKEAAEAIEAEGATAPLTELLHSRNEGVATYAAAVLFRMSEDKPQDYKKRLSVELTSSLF

The next test deals with T4, GST-β-catenin aa422–683 (Mus musculus (Mouse), UniProt Q02248).
T4 chain: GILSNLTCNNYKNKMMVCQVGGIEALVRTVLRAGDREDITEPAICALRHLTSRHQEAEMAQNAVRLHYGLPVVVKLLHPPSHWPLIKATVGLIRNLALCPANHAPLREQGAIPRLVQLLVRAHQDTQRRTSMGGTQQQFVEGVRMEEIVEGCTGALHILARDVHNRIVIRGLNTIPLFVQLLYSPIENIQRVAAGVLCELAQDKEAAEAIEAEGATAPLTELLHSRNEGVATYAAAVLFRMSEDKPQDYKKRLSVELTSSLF

The next test addresses T5, GST-β-catenin aa1–574 (Mus musculus (Mouse), UniProt Q02248).
T5 chain: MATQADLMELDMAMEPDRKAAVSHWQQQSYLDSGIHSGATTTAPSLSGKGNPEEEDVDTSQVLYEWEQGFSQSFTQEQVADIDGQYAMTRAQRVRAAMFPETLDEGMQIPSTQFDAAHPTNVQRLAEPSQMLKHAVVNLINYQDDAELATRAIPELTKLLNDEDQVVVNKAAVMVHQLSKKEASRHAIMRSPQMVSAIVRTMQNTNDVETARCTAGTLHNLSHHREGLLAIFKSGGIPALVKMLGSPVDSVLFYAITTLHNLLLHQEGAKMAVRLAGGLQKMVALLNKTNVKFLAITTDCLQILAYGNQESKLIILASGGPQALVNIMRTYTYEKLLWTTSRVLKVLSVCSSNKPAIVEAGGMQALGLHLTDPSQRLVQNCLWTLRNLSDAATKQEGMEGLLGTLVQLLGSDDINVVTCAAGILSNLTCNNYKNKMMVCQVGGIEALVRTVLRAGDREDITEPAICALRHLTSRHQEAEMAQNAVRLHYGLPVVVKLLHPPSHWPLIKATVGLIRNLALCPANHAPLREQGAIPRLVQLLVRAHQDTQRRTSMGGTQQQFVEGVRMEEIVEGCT

For another test, the target named is T6, GST-β-catenin aa575–696 (Mus musculus (Mouse), UniProt Q02248).
T6 chain: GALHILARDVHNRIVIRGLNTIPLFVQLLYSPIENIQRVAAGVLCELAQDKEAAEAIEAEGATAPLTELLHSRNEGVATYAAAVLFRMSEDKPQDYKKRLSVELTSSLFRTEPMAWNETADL

B1: Smad7 (GST tag removed by thrombin) (protein)
chain: MFRTKRSALVRRLWRSRAPGGEDEEEGVGGGGGGGELRGEGATDGRAYGAGGGGAGRAGCCLGKAVRGAKGHHHPHPPTSGAGAAGGAEADLKALTHSVLKKLKERQLELLLQAVESRGGTRTACLLLPGRLDCRLGPGAPASAQPAQPPSSYSLPLLLCKVFRWPDLRHSSEVKRLCCCESYGKINPELVCCNPHHLSRLCELESPPPPYSRYPMDFLKPTAGCPDAVPSSAETGGTNYLAPGGLSDSQLLLEPGDRSHWCVVAYWEEKTRVGRLYCVQEPSLDIFYDLPQGNGFCLGQLNSDNKSQLVQKVRSKIGCGIQLTREVDGVWVYNRSSYPIFIKSATLDNPDSRTLLVHKVFPGFSIKAFDYEKAYSLQRPNDHEFMQQPWTGFTVQISFVKGWGQCYTRQFISSCPCWLEVIFNSR
As for B1, the binding result with GST-β-catenin aa575–683 is on record as “binds”; with GST-β-catenin aa1–106 it was “no binding”; with GST-β-catenin aa120–683 it was “binds”; in the test with GST-β-catenin aa422–683 it was “binds”; with GST-β-catenin aa1–574, “no binding”; with GST-β-catenin aa575–696, “binds”.

The record behind these values is article PMC6522533 (2019).
